assay: soluble on expression in E. coli; label from the status in PepcDB or PDB records

**Q.** For “QNSWDSLQPDREQVIASLNVVELLKRHHYNKPPLNDERSAKIYDSYLKMLDPARMYFTAGDIAEFDRWRNRFDDFLKSGDLDPGFVIYKRHLDRLKGRLDYALAMLDKGVDKIDFSVDESLLIDREKAPWAKDTAELDDLWRKKVKDEVLRLKITGKDDKAIQEQLTKRYKNQLSRLKQTRSEDIFQAYINAFAQSYDPHTQYLSPDNAENFDINMSLSLEGIGAVLQSDNDYVKVVRLVPAGPAAKSKQIATSDKIIGVAQGKGEMVDVVGWRLDEVVKLIRGPKGSQVRLEVIPASNAPNDQTSKIVAITREAVKLEDQAAKKSIIKVDHEGRSYKLGVIDLPAFYLDFKAYRAGDPNYKSTTRDVKKLVAELQKDKVDGIVLDLRNNGGGSLQEATELTGLFIDQGPTVLVRNSDGRVDVLNDDEGKAFYTGPLAVLVNRLSASASEIFAGAMQDYHRALILGGQTFGKGTVQTIQPLNHGELKLTLAKFYRVSGQSTQHQGVIPDISYPSIVDDKEIGESALPDSMPWDTIRPVVKDEANPFKPFLAQLKAQHDARTENNADFVYARERLALAQELMKEKTVSLNEAKRRAQQTSIENRQLAMENALRKSKGQEPLKELKREDENALPEEDDKTKPQDDAYLTESGHILLDYLNLNSAVAK”, which “soluble on expression in E. coli” value is on record?
**A.** not soluble

**Q.** Which “soluble on expression in E. coli” value does the source give for “GAADMPFRWSFMADGKSLIAAQPDDARVIADTEALAGWYGGMTSLAPKQIKLFADGAIYSQLMQVRDPFLDGHKGEWMMDLDQFQRAFRVYWDAGYQLHVHVNGDAGLDRVLDTLETNLRRTPRDDHRTTIVHFAVSGADQVLRIRDLGAIVSANPYYVAALADNYGEVGLGPDRADNMVRLGDVEAAGISWSLHSDMPMAPCDPLFLMWCAVNRVTSSGRVAGPAQRVSAETALRGVTINAAYSLKLEHEIGSIEPGKRANLTILGDNPLTVDPEKIRDIAVIGTVMEGRDFP” here?
**A.** not soluble

**Q.** With “MGSDKIHHHHHHMSEIEAQLPVIHFADAKTFETWIAEQGSDCKGLWVKFAKKASGIASITPREALDVALCYGWIDGQRIGSDSDFYLNKYTPRRARSRWSQVNCARATELIAEGRMTPRGLAEVERARTDGRWDAAAPPPSKATVPDDLHDALAQNAAAKMLFDELDSRNRYAILFRIHDAKKSETRAARIEKYVGMLARGETPYPRRKAR” as the sequence, how does the “soluble on expression in E. coli” value read?
**A.** not soluble

**Q.** For “MSRLRVFRQTGWFIAGLMTGLPATAAPAEASSMAGVAVAVATTTPPDATATLQAMQSCRRESAALERLDCYDHLLAPLSPSGFDGALVKAGFVGEAWTRATEQEKRREGNTTELLVTQVPGERPTVVITTPAIGHVPPRPVLMFSCVDNITRMQVALMHPLDVHDIAVTLNADSRALRSHWFVRENGTLLESSRGLSGIDEIKQLFGAKTLTVDTGADNAAGKLTFNIDGLARAIAPLRDACHWAGE”, which “soluble on expression in E. coli” value is on record?
**A.** not soluble

**Q.** With “GPGSMADYLREKVLESLGISFRETQNCRRWITEVTNMIWEAQPAELRTALCWTTPLGLVVRQPYKVRKEITLFTPHGCSRIPGDAFSAASRKQLTAIAPNLIHSLDATHLAMTAIEMQNLGLSMMAVHDSYWTYACDLPVLSKVLRQQFVTLYSKYDPLWELKEQWEEAYFMDLRRHGTLLPDPPKRGDLDLSVVLDSPYFFS” as the sequence, how does the “soluble on expression in E. coli” value read?
**A.** not soluble

**Q.** For “MGSDKIHHHHHHMVPARHCHVAVFDQAIVALDIRRSRYFLYDAACARDFADHYLDFKPIDAPRALKPLIADRILVAESPAAARSRIADYRGWSFDAFDSGIWGSRVLGKRDAARFEWLPFWRIVRSAASLKMRGFHALAALDQLDARGAPARGDDASHTVERLLRASIWSPFRITCVQMSLALATHLRRQNVPAQLVIGVRPMPFVAHAWVEVDGRVCGDEPDLKKSYGEIYRTPRCDASAAPFGLAA”, which “soluble on expression in E. coli” value is on record?
**A.** not soluble

**Q.** Which “soluble on expression in E. coli” value does the source give for “GPGSMQQSLIPGHNNNRHLTYDEVENNIGGLPVTDNRIQDLFDSLDVDHSGTVSVEVVKKFYMGLEHYGVDLSDKELDEMVRKYAATHDESLSYEEFACFVLSLAQW” here?
**A.** soluble

**Q.** For “MVKDEVIKQISTPLTSPAFPRGPYKFHNREYFNIVYRTDMDALRKVVPEPLEIDEPLVRFEIMAMHDTSGLGCYTESGQAIPVSFNGVKGDYLHMMYLDNEPAIAVGRELSAYPKKLGYPKLFVDSDTLVGTLDYGKLRVATATMGYKHKALDANEAKDQICRPNYMLKIIPNYDGSPRICELINAKITDVTVHEAWTGPTRLQLFDHAMAPLNDLPVKEIVSSSHILADIILPRAEVIYDYLK”, which “soluble on expression in E. coli” value is on record?
**A.** soluble

**Q.** For “MYVYKRDGRKEPVQFDKITARISRLCYGLDPKHIDAVKVTQRIISGVYEGVTTIELDNLAAETCAYMTTVHPDYATLAARIAISNLHKQTTKQFSKVVEDLYRYVNAATGKPAPMISDDVYNIVMENKDKLNSAIVYDRDFQYSYFGFKTLERSYLLRINGQVAERPQHLIMRVALGIHGRDIEAALETYNLMSLKYFTHASPTLFNAGTPKPQMSSCFLVAMKEDSIEGIYDTLKECALISKTAGGIGLHIHNIRSTGSYIAGTNGTSNGLIPMIRVFNNTARYVDQGGNKRPGAFALYLEPWHADIFDFIDIRKNHGKEEIRARDLFPALWIPDLFMKRVEENGTWTLFSPTSAPGLSDCYGDEFEALYTRYEKEGRGKTIKAQKLWYSILEAQTETGTPFVVYKDACNRKSNQKNLGVIKSSNLCCEIVEYSAPDETAVCNLASVALPAFIETSEDGKTSTYNFKKLHEIAKVVTRNLNRVIDRNYYPVEEARKSNMRHRPIALGVQGLADTFMLLRLPFDSEEARLLNIQIFETIYHASMEASCELAQKDGPYETFQGSPASQGILQFDMWDQKPYGMWDWDTLRKDIMKHGVRNSLTMAPMPTASTSQILGYNECFEPVTSNMYSRRVLSGEFQVVNPYLLRDLVDLGIWDEGMKQYLITQNGSIQGLPNVPQELKDLYKTVWEISQKTIINMAADRSVYIDQSHSLNLFLRAPTMGKLTSMHFYGWKKGLKTGMYYLRTQAASAAIQFTIDQKIADQATENVADISNLKRPSYMPSSASYAASDFVPAAVTANATIPSLDSSSEASREASPAPTGSHSLTKGMAELNVQESKVEVPEVPAPTKNEEKAAPIVDDEETEFDIYNSKVIACAIDNPEACEMCSG”, which “soluble on expression in E. coli” value is on record?
**A.** soluble

**Q.** Which “soluble on expression in E. coli” value does the source give for “SDSPEQESADDALKRIVDGFQHFRREVFPEQQALFKKLANSQRPRAMFITCADSRIVPELITQSSPGDLFVTRNVGNVVPPYGQMNGGVSTAIEYAVLALGVHHIIVCGHSDCGAMRAVLDPQTLERMPTVKAWLRHAEVARTVVADNCDCGASHDTLGVLTEENVVAQLDHLRTHPSVASRLASGQLFIHGWVYDIESAQIRAYDAKQGRFLPLDGEHPVPMATPAPRYLSS” here?
**A.** not soluble

**Q.** For “MSLKKWFTILTFVLTAFLVTRTAIAETSPYVLMQQAADKLFSDIQANQSKIKQDPNYLRTIVRNDLLPYVNLEYAGSKVLGSYYKSTSAEQREKFFKTFGELIEQKYAQALTNYSNQKIQIESEKELGDNNFINIRVNIIQANGVAPILLYFKWRKGNKSGEWKVYDMVGAGVSMLEDTIKNWVGILNKQGIDTLITKMQQSASQPIIFNQEGGSHHHHHH”, which “soluble on expression in E. coli” value is on record?
**A.** soluble

**Q.** For “MSLSFLYFNDNSKIANAPLKNRFEKTQKESLIIKNNNEDKKAKSKPKFYLIIDDVGYDEFMLEQFIKLNLKITYAIIPFLPKSMSLYKKLKNANKTVIIHFPMQSKHRNSIEKFHINIKDKKEEIHKKIEKAFKKYPDAKIMNNHMGSLITSNKDLMKIILEKLKEIDRYFFDSVTIAGSVPEIIGKEIGVKVEKRDVFLDSKDTEESVTKELEKAKNIARKNGMVKVIGHIWSKNTLKVLKKEGPDLNQEFEFDNLLNLYEETIREGHHHHHH”, which “soluble on expression in E. coli” value is on record?
**A.** not soluble

**Q.** For “MVERTAVFPAGRHSLYAEHRYSAAIRSGDLLFVSGQVGSREDGTPEPDFQQQVRLAFDNLHATLAAAGCTFDDIIDVTSFHTDPENQFEDIMTVKNEIFSAPPYPNWTAVGVTWLAGFDFEIKVIARIPEQ”, which “soluble on expression in E. coli” value is on record?
**A.** soluble

**Q.** With “MAHHHHHHMSSHQILITAPEVYSKRFAQALEARSLIPMAVPVIETIATPDTADMRALLEQDLNGIDYIAFCSRCAVDSLSAALDHRYGGGGESVSERAGSAPAVNEDRRATAVVKVLAKCALAAIGKDADYVFERLRIRTTICPDEPSPAGIAAKLAESGRAEGRTIAVLAPCVEGFTEPDVVPRFVDQLKGMGMKVVRVDAYMTRPVSEEAVSAAVTALKNGSVRGVAFTSAGEIAVLLRRSPQCLMNIDVACFGPYTAGFAAKHGVKVSCVAKDFRSFDGFAATIEQHYASR” as the sequence, how does the “soluble on expression in E. coli” value read?
**A.** soluble

**Q.** For “GMVRYPLEPVLSIKKDRVDRAEKVVKEKRRLLELEQEKLRERESERDKVKNHYMQKIRQLREQLDDGTTSDAILKMKAYIKVVAIQLSEEEEKVNKQKENVLAASKELERAEVELTKRRKEEEKTRLHKEEWMKEALKEEARQEEKEQDEMGQLLHQLHKQKQRESGEN”, which “soluble on expression in E. coli” value is on record?
**A.** soluble

**Q.** With “MGSDKIHHHHHHMVSTIGIVSLSSGIIGEDFVKHEVDLGIQRLKDLGLNPIFLPHSLKGLDFIKDHPEARAEDLIHAFSDDSIDMILCAIGGDDTYRLLPYLFENDQLQKVIKQKIFLGFSDTTMNHLMLHKLGIKTFYGQSFLADICELDKEMLAYSLHYFKELIETGRISEIRPSDVWYEERTDFSPTALGTPRVSHTNTGFDLLQGSAQFEGKILGGCLESLYDIFDNSRYADSTELCQKYKLFPDLSDWEGKILLLETSEEKPKPEDFKKMLLTLKDTGIFAVINGLLVGKPMDETFHDDYKEALLDIIDSNIPIVYNLNVGHATPRAIVPFGVHAHVDAQEQVILFDYNK” as the sequence, how does the “soluble on expression in E. coli” value read?
**A.** not soluble

**Q.** Which “soluble on expression in E. coli” value does the source give for “MKNNVKNWTTKEVKQSLDKFNNILIKNTFLLQYLKKEFSASSAYCLSMLPEEEDIYEILVNGNIIIDLEFNKHTNETVVINVTDVDEYLKTLTNESGRVFFTLAKEIGKQKNI” here?
**A.** not soluble

**Q.** With “MSFPLIFERSRKGRRGLKLVKAVPKAEDLIPKEHLREVPPRLPEVDELTLVRHYTGLSRRQVGVDTTFYPLGSCTMKYNPKLHEEAARLFADLHPYQDPRTAQGALRLMWELGEYLKALTGMDAITLEPAAGAHGELTGILIIRAYHEDRGEGRTRRVVLVPDSAHGSNPATASMAGYQVREIPSGPEGEVDLEALKRELGPHVAALMLTNPNTLGLFERRILEISRLCKEAGVQLYYDGANLNAIMGWARPGDMGFDVVHLNLHKTFTVPHGGGGPGSGPVGVKAHLAPYLPVPLVERGEEGFYLDFDRPKSIGRVRSFYGNFLALVRAWAYIRTLGLEGLKKAAALAVLNARYLKELLKEKGYRVPYDGPSMHEFVAQPPEGFRALDLAKGLLELGFHPPTVYFPLIVKEALMVEPTETEAKETLEAFAEAMGALLKKPKEWLENAPYSTPVRRLDELRANKHPKLTYFDEG” as the sequence, how does the “soluble on expression in E. coli” value read?
**A.** soluble

**Q.** For “MSMPRYYEYRHVVGFEETNLVGNVYYVNYLRWQGRCREMFLYEHAPEILDELRADLKLFTLKAECEFFAELAPFDRLAVRMRLVELTQTQMELGFDYLRLGGDDLLVARGRQRIACMRGPNGRTEPVRVPAGLVRAFAPFRSATVGQ”, which “soluble on expression in E. coli” value is on record?
**A.** soluble

**Q.** Which “soluble on expression in E. coli” value does the source give for “MAHHHHHHMTSVYNFKTITVVPTYKDFMDIVLSKTQRKTPTVVHKGYHISRIRQFYMRKVKFTQKTINEKLTYILQEFPRMDDIHPFYGDLMHVLYDRDHYKVALGQVGAVRHMVDNIGRDYVRLLKYGDSLYRCKQLKRAALGRMATACKKLNSALAYLEKVRQHMSRLPSIDPNARTLLVTGFPNVGKSSFMNKVTRADVEVQPYAFTTKSLFVGHTDYKYTTWQVIDTPGILDHSLEERNVIEMQAITALAHLRACILFFMDLSGQCGYSIEQQVSLFKSVGPLFTGKPVVVVFNKCDVCTIDDVSSAEQELIMDAIQEADAKWITTSTLTDVGVGDLKTVACDMLLAHRSEQKEGSGRYQAIQNRLYCATPQQRDELERPAFVPASVLQARATGEPPRQRRKTERDYEWENGGPGQYQKNERKTWDLENPEWVDDIIPDIMDGHNIYDNIDPDIHQRLLELEAEEEARLEDLELEASRKHEQYTLDNDTIEAVKFIKDKIKVLKMERAMKNPAIRRTHSQAMAIDKFNKRTGSQDARAKSIADGSGEVPTRKRGRSMSVAQEALIRDRSGSAHVSTKTTRSISGASASRERSMSVNRGDGYRDVNEKLRAVKLSKVKARPLARQARKGEGDHHIPNLRPMHLFTGKVKSNGARDRR” here?
**A.** not soluble

**Q.** For “KRKTKEQLAILKSFFLQCQWARREDYQKLEQITGLPRPEIIQWFGDTRYALKHGQLKWFRDNA”, which “soluble on expression in E. coli” value is on record?
**A.** soluble

Reference: the DeepSol protein solubility set
